Each block holds one binder with its values, some of them ahead of it.
Target: T1, human ROR1 expressed on cells (MDA-MB-231, JIMT-1, CLL patient cells) (human, UniProt Q01973 30-937)
T1 construct: whole, on cells; also called hROR1; plasma-membrane human ROR1
Assay: flow cytometry on MDA-MB-231 cells

T1 sequence (Q01973 30-937): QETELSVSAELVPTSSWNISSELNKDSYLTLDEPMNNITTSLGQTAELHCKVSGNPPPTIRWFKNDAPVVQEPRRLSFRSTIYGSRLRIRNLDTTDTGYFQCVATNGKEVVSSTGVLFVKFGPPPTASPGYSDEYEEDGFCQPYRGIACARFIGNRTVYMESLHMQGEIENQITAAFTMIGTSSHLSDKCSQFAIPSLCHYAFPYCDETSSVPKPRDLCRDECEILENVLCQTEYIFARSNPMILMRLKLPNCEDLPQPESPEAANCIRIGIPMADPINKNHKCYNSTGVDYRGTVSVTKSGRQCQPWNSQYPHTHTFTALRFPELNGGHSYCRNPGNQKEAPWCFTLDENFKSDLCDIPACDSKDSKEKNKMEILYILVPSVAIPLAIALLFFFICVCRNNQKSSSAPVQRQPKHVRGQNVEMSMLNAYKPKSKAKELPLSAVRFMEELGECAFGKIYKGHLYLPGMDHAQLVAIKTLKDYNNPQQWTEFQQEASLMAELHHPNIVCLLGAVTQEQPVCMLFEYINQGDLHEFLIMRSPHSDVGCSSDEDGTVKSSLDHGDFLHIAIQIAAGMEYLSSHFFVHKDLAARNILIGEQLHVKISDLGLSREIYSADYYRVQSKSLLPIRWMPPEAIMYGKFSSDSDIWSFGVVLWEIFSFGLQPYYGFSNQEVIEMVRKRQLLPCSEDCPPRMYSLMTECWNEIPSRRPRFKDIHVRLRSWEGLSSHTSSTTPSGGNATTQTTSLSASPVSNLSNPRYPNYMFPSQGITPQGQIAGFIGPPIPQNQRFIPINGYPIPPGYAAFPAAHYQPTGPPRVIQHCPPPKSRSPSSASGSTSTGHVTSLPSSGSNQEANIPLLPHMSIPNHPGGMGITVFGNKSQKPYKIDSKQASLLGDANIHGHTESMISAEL

fold lower apparent binding affinity than reference Fab PRO2213: ~3 fold
B1: PRO2060 (scFv, V domains shown)
VH: QSQVVESGGGLVQPGGSLRLSCAVSGFDLSSYAVSWVRQAPGKGLEWIGIIYPRANTYYASWAKGRFTISKDNSKNTVYLQMNSLRAEDTAVYFCARDRYDSGAYLYTTYFNLWGQGTLVTVSS
VL: DVQMTQSPSSLSASVGDRVTITCRASENIYSGLAWYQQKPGKPPKLLIYRASTLASGVSSRFSGSGSGTDFTLTISSLQPEDFATYYCQGGYYSSSSTYIAFGTGTKVTVLG

fold higher apparent binding affinity than reference Fab PRO2213: ~3 fold
B2: PRO2062 (scFv, V domains shown)
VH: QSQLVESGGGLVQPGGSLRLSCAVSGLSLSRNAMSWVRQAPGKGLEWIGIILTSGSTYYASWAKGRFTISKDNSKNTVYLQMNSLRAEDTAVYFCVRGIASSSLKSFWGQGTLVTVSS
VL: AQQLTQSPSSLSASVGDRVTITCQASQNVWNNNYLSWFQQKPGKPPKLLIVTASTLASGVSSRFSGSGSGTDFTLTISSLQPEDFATYYCAGGFSGEIRAFGTGTKVTVLG

fold lower apparent binding affinity than original scFv PRO2062: ~2 fold
B3: PRO2271 (scFv, V domains shown)
VH: QSQLVESGGGLVQPGGSLRLSCAVSGIDLSRNAMSWVRQAPGKGLEWIGIILTSGSTYYASWAKGRFTISKTSTTLDLQMNSLRAEDTAVYFCVRGIASSSLKSFWGQGTLVTVSS
VL: B2 VL
